Variants at the floor of the assay were thinned out.
B1: TPR 5TU (parent)
chain: GGAUCUUCUCGAUCUAACAAAAAAGACAAAUCUGCCACAAAGCUUGAGAGCAUCUUCGGAUGCAGAGGCGGCAGCCUUCGGUGGCGCGAUAGCGCCAACGUUCUCAACUAUGACACGCAAAACGCGUGCUCCGUUGAAUGGAGUUUAUCAUG

Variants of: B1
Assay: polymerase ribozyme fitness, log enrichment relative to wild type (log ratio); higher = more active; in vitro selection for triplet polymerase activity
Method in brief: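 Mutant libraries of both subunits of a heterodimeric triplet polymerase ribozyme were PCR-built, transcribed, and selected once in triplicate, with frozen incubation at −7 °C and capture of gel-excised extended constructs on streptavidin beads before RT-PCR. Illumina sequencing of input and output libraries was filtered to genotypes with ≥10 input reads and ≥1 read per output. Fitness is the logarithm of genotype enrichment over wild-type enrichment, using inverse-variance-weighted replicate averages. The logarithm is base 2.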

Going from GGAUCUUCUCGAUCUAACAAAAAAGACAAAUCUGCCACAAAGCUUGAGAGCAUCUUCGGAUGCAGAGGCGGCAGCCUUCGGUGGUGCGAUAGCGCCAACGUUCUCAACUAUGACACGCAAAACGCGUGCUCCGUUGAAUGGAGAUUAUCAUG [C85U U144A] to GGAUCUUCUCGAUCUAACAAAAAAGACAAAUCUGCCACAAAGCUUGAGAGCAUCUUCGGAUGCAGAGGCGGCAGCCUUCGGUGGCACGAUAGCGCCAACGUUCUCAACUAUGACACGCAAAUCGCGUGCUCCGUUGAAUGGAGUUUAUCAUG [G86A A122U], the “polymerase ribozyme fitness (log ratio)” value falls from -0.618 to -1.33.

Going from GGAUCUUCUCGAUCUAACAAAAAAGACAAAUCUGCCACAAAGCUUGAGAGCAUCUUCGGAUGCAGAGGCGGCAGCCUUCGGUGGCCGGAUAGCGCCAACGUUCUCAAGUAUGACACGCAAAACGCGUGCUCCGUUGAAUGGAGUUUAUCAUG [G86C C87G C108G] to GGAUCUUCUCGAUCUAACAAAAAAGACAAAUCUGCCACAAAGCUUGAGAGCAUCUUCGGAUGCAGAGGCGGCAGCCUUCGGUGGCACGAUAGCGCCAACGUUCUCAACUAUGAUACGCAAAACGCGUGCUCCGUUGAAUGGAGUUUAUCAUG [G86A C114U], the “polymerase ribozyme fitness (log ratio)” value rises from at most -4.2 to -2.15.

Going from GGAUCUUCUCGAUCUAACAAAAAAGACAAAUCUGCCACAAAGCUUGAGAGCAUCUUCGGAUGCAGAGGCGGCAGCCUUCGGUGGCACGAUAGCGCCAACGUUCUCAACUAUGAAACGCAAAACGCGUGCUCCGUUGAAUGGAGUUUAUCAUG [G86A C114A] to GGAUCUUCUCGAUCUAACAAAAAAGACAAAUCUGCCACAAAGCUUGAGAGCAUCUUCGGAUGCAGAGGCGGCAGCCUUCGGUGGCUCGAUAGUGCCAACGUUCUCAACUAUGACACGCAAAACGCGUGCUCCGUUGAAUGGAGUUUAUCAUG [G86U C93U], the “polymerase ribozyme fitness (log ratio)” value rises from -4.1 to -2.59.

Compared with GGAUCUUCUCGAUCUAACAAAAAAGACAAAUCUGCCACAAAGCUUGAGAGCAUCUUCGGAUGCAGAGGCGGCAGCCUUCGGUGGCACUAUAGCGCCAACGUUCUCAACUAUGACACUCAAAACGCGUGCUCCGUUGAAUGGAGUUUAUCAUG [G86A G88U G117U], GGAUCUUCUCGAUCUAACAAAAAAGACAAAUCUGCCACAAAGCUUGAGAGCAUCUUCGGAUGCAGAGGCGGCAGCCUUCGGUGGCACGAUAGCGCCAACGUUUUCAACUAUGACACGCAAAACGCGUGCUCCGUUGAAUGGAGUUUAUCAUG [G86A C103U] is higher in “polymerase ribozyme fitness (log ratio)” value: at most -4.2 for the first, -1.01 for the second.

First: GGAUCUUCUCGAUCUAACAAAAAAGACAAAUCUGCCACAAAGCUUGAGAGCAUCUUCGGAUGCAGAGGCGGCAGCCUUCGGUGGCACGAUAGCGCCAACGUUCUGAACUAUGACACGCAAAACGCGUGCUCCGUUGAUUGGAGUUUAUCAUG [G86A C105G A138U]
Second: GGAUCUUCUCGAUCUAACAAAAAAGACAAAUCUGCCACAAAGCUUGAGAGCAUCUUCGGAUGCAGAGGCGGCAGCCUUCGGUGGCUCGAUAGCGCCAACGUUAUCAACUAUGACACGCAAGACGCGUGCUCCGUUGAAUGGAGUUUAUCAUG [G86U C103A A121G]
The “polymerase ribozyme fitness (log ratio)” value of the first is lower: at most -4.2 for the first, -2.73 for the second.

First: GGAUCUUCUCGAUCUAACAAAAAAGACAAAUCUGCCACAAAGCUUGAGAGCAUCUUCGGAUGCAGAGGCGGCAGCCUUCGGUGGCCCGAUAGCGCCAAUGUUCUCAACUAUGACACGCAAAACGCGUGCUCCGUUGAAUGGAGUUUAUCAUG [G86C C99U]
Second: GGAUCUUCUCGAUCUAACAAAAAAGACAAAUCUGCCACAAAGCUUGAGAGCAUCUUCGGAUGCAGAGGCGGCAGCCUUCGGUGGCACGAUAGCGCCAACGUUCGCAACUAUGACACGCAAAACGCGUGCUCCGUUGAAUGGAGUUUAUCAUG [G86A U104G]
The “polymerase ribozyme fitness (log ratio)” value of the first is lower: -2.83 for the first, -2.29 for the second.

Compared with GGAUCUUCUCGAUCUAACAAAAAAGACAAAUCUGCCACAAAGCUUGAGAGCAUCUUCGGAUGCAGAGGCGGCAGCCUUCGGUGGCACGACAGCGCCAACGUCCUCAACUAUGACACGCAAAACGCGUGCUCCGUUGGAUGGAGUUUAUCAUG [G86A U90C U102C A137G], GGAUCUUCUCGAUCUAACAAAAAAGACAAAUCUGCCACAAAGCUUGAGAGCAUCUUCGGAUGCAGAGGCGGCAGCCUUCGGUGGCCCGAUAGCGCCAACGUUCUCAACUAUGACACACAAAACGCGUGCUCCGUUGAAUGGAGUUUAUCAUG [G86C G117A] is higher in “polymerase ribozyme fitness (log ratio)” value: at most -4.2 for the first, -1.84 for the second.

Going from GGAUCUUCUCGAUCUAACAAAAAAGACAAAUCUGCCACAAAGCUUGAGAGCAUCUUCGGAUGCAGAGGCGGCAGCCUUCGGUGGUGCGAUAGCGCCAACGUUCUCAACUAUGACACGCAAAACGCGUGCUCCGUUGAAUGGAGUCUAUCAUG [C85U U145C] to GGAUCUUCUCGAUCUAACAAAAAAGACAAAUCUGCCACAAAGCUUGAGAGCAUCUUCGGAUGCAGAGGCGGCAGCCUUCGGUGGCACGAUAGCGCCAACGUUCUCAACUAUGACACGCAAAACGCGUGCUCCGUUGAAUGGAGUUUACCAUG [G86A U148C], the “polymerase ribozyme fitness (log ratio)” value falls from -0.732 to -1.5.

First: GGAUCUUCUCGAUCUAACAAAAAAGACAAAUCUGCCACAAAGCUUGAGAGCAUCUUCGGAUGCAGAGGCGGCAGCCUUCGGUGGCACGAUAGCGCCAACGUUCUCAACUAUGACACGCAAAACGCGUGCUCCGUUGAAUGAAGUUUAUCAUG [G86A G141A]
Second: GGAUCUUCUCGAUCUAACAAAAAAGACAAAUCUGCCACAAAGCUUGAGAGCAUCUUCGGAUGCAGAGGCGGCAGCCUUCGGUGGCCCGAUAGCGCCAACGUUCUCAACUAUGACACGCAAAACGCGUGCUCCGUUGAAUGGAGUUUAUCAGG [G86C U151G]
The “polymerase ribozyme fitness (log ratio)” value of the first is higher: -0.545 for the first, at most -4.2 for the second.

With GGAUCUUCUCGAUCUAACAAAAAAGACAAAUCUGCCACAAAGCUUGAGAGCAUCUUCGGAUGCAGAGGCGGCAGCCUUCGGUGGCACGGUAGCGCCAACGUUGUCAACUAUGACGCGCAAAACGCCUGCUCCGUUGAAUGGAGUUUAUCAUG [G86A A89G C103G A115G G126C] the “polymerase ribozyme fitness (log ratio)” value was at most -4.2.

Reference: the RNAGym collection of RNA variant scans (doi:10.1073/pnas.2313332121)
